The series in a line: soluble on expression in E. coli; label from the status in PepcDB or PDB records.
Take “MDMKRRIHLELRNRTPAAVRELVLDNCKSNDGKIEGLTAEFVNLEFLSLINVGLISVSNLPKLPKLKKLELSENRIFGGLDMLAEKLPNLTHLNLSGNKLKDISTLEPLKKLECLKSLDLFNCEVTNLNDYRESVFKLLPQLTYLDGYDREDQEAPDSDAEVDGVDEEEEDEEGEDEEDEDDEDGEEEEFDEEDDEDEDVEGDEDDDEVSEEEEEFGLDEEDEDEDEDEEEEEGGKGEKRKRETDDEGEDD”: the “soluble on expression in E. coli” value is “soluble”.

For “MAAVSIVFEAPDNYGGAPAVSKKPIDFDHLAQQTMGDKDLEIEVLQLFSRSARAALHEMAGADNKTVTATAHRLKGSAQAVGASAVSAAAAAVEEKGNDSALIAKLAAAIVEAENFILKLCR”, the “soluble on expression in E. coli” value was “not soluble”.

As for “MAHHHHHHMKGTLAGYTRGLHGQTKQTALVRVENVNTREDATWYVGKRVCYVYHGKKVKRCVRWSKAPARRSTTRALWGRVTRPHGNAGMMRVKFNGASVPASAIGRRIRVYLYPSQI”, the “soluble on expression in E. coli” value is recorded as “soluble”.

With “MGHHHHHHSHMIINWNQVSVLWKCLLKQSASYQDRRQSWRRASMKETNRRKSLHPIHQGITELSRSISVDLAESKRLGCLLLSSFQFSIQKLEPFLRDTKGFSLESFRAKASSLSEELKHFADGLETDGTLQKCFEDSNGKASDFSLEASVAEMKEYITKFSLERQTWDQLLLHYQQEAKEILSRGSTEAKITEVKVEPMTYLGSSQNEVLNTKPDYQKNYRTRAKSLTVWSW”, the “soluble on expression in E. coli” value is recorded as “not soluble”.

As to “MAHHHHHHSLAYGNINQPFSLESLPDELIPENLYQIETDSSRVFQRHQCRRLAHLLLFQLLKIAGKSTALLSQIHRTESGRPYFLDERIDFNISHSGDWVAVILDIRNEEKSAVGIDIEFPKIRNFTALMEHIAPKEEIDWFHHQQDSLNAFYRCWCLREAVLKSQGFGIVKLSNVRHFPEQQKIFSDYCPQGQLWFTDELPIYLAAFVNHQEKLPHFYEWNRESLQIKELEKYVLYEVNEG”, the “soluble on expression in E. coli” value was “soluble”.

With “MTIKYLTKNDVLAACIGGSVYASGGGGFYEHGLEMGEAAVALSPVVLKTIDEFEEDDLIITQTAIGAPAGTTDWQMLGKDYIRAVELLLEKHPHPEKIKGILTPQNGKSSSTNGWLSASALGLAVVHATGDIRAHPTGKMGNMGVANDTTYETIQAVSGGRRETGRHIELSVQGTAAYTSKILRIASDLSGGFIAAARHPLTASYIKQNAVIGGLSKAIELGYCILEHQNEDGSSIIDAIVKHTHGEILAKGKVVAKDMTYTDEAFDVGKVKIKTESDNVTLHVQNEFMAVDSQALGRVATYPDVITLFRAKDAKALSTDEISIDEEVVVFKISHKHFPLSTGVKDPSVYPEVENVLGIDLYRHAFKLEHHHHHH”, the “soluble on expression in E. coli” value is recorded as “soluble”.

Regarding “MGSDKIHHHHHHMDKELDLAVTCYGKVKPLKYDLVLLPWGATEPHNLHLPYLTDCILSHDIALDAAKLAKTHYGIRCMVMPYVTAGSQNPGQRELDFCIHYRYETQKAILSDLVASLYAQGYRKMVIINGHGGNTFKSMIRDLSLDYPDFLIASSEWFAFIPAKEYFDEPGDHADELETSVMMHYHPELVNLDEAGDGNYKKFASQMLNEKVAWIPRNWQNVSQDTGIGNPKKASAGKGKKYAEAVVAKYALLFEELVHKELY”, the “soluble on expression in E. coli” value is reported as “not soluble”.

“MRSAVSKVEESIEVAVPVSTAYNQWTQFEEFPQFMGGVERIEQQTATLTHWVTKVGGVTREFDAEIVEQIPDEQVSWTTVGGDVHQAGVVTFHRLDDRRTKVMLQMDHDSKGVVDAVGDKLGVVKHQVSEDLKRFKSFIENRGLEHHHHHH”: the “soluble on expression in E. coli” value is given as “not soluble”.

In the case of “SSSSDESEVKEAPKEEAKADKPKVSAPAQRGSDFANIGPMYPLDPFTLNLLSDSGSRYVKCTIELEQNSELLKPELDKKVPVIRDIIIRTLTAKTFEEVSTQKGKERLKDELVGKINEILTDGFIKNVYFTDFVVS”, the “soluble on expression in E. coli” value was “not soluble”.

Regarding “MGSDKIHHHHHHAAIPDTGNWISHHLLTSDGLTVLAAGPAFAPLKWNIGQNNMGGYKGRLLFIPYDAPSTVPMIPVKPTTNEDLITASGSFTFPSGGTYTQPIYLYSTKGKVGYKAEIQGETDGKSFKQTLEFFFPGNTPGMHAFSTLVKNTPGYFVFEDSDGQQFLMGKPGMYADVSPSFDGGKLAADQRGTAYTATCDANESAVVLGTPIDMEVIAGLKPAPSPGG”, the “soluble on expression in E. coli” value was “not soluble”.

For “MGSDKIHHHHHHMASRLPPLNALRAFDASARQLSFTRAAEELFVTQAAISHQIKSLEDHLGIKLFMRKNRALLLTEEGQSYYLDIKDIFTSLHEATERLLARGAKGAITVSSQASFAIQWLVPRLTAFNSLHQDIDVRIKAVDQPENSLTEDVDIAIYYGRGRWPNIHADKLHTEYLIPVCSPLLVQENAANGKPPLLTLEDLSEHTLLHDTSRKDWKRWFKQVGVKGANVNHGPIFSHSAMVLQAALHGQGIALAYSVLAKPDIDSGRLVCPFNDVLVSKNAYFIVCRENQKDIGKITAFREWMLDMVEAEQAQITDGQIS”, the “soluble on expression in E. coli” value is recorded as “not soluble”.

Take “MAHHHHHHMATVGDPLFRIHEPTYAFLDCSACIAFAGHLGRRMNESIRYGGRGGATFLSSHRLGKDNKLKRRDYATSELRGAEVLEKICNDSLFDDYALHFRADMRIRVYDNGESEYPLAQHYSKEDSRILKAVKTKAVHVFCTRVMDEEEDAMTSLVREVELLSELEQRLCGGYLEMRNITAPPFPVEKAVTAVCVGVEPSIEAEVRRLEKYEKWQASISKGTSQDKMKGAEGAESVVVKGVQYSKDDPLSFTVLRKPNAKSNGDTTEGGSDAAEDVRKQPDKDSVFMNFDL”: the “soluble on expression in E. coli” value is “not soluble”.

For “SSLDDKPQFPGASAEFIDKLEFIQPNVISGIPIYRVMDRQGQIINPSEDPHLPKEKVLKLYKSMTLLNTMDRILYESQRQGRISFYMTNYGEEGTHVGSAAALDNTDLVFGQYREAGVLMYRDYPLELFMAQCYGNISDLGKGRQMPVHYGCKERHFVTISSPLATQIPQAVGAAYAAKRANANRVVICYFGEGAASEGDAHAGFNFAATLECPIIFFCRNNGYAISTPTSEQYRGDGIAARGPGYGIMSIRVDGNDVFAVYNATKEARRRAVAENQPFLIEAMTYAIGHASTSDDSSAYRSVDEVNYWDKQDHPISRLRHYLLSQGWWDEEQEKAWRKQSRRKVMEAFEQAERKPKPNPNLLFSDVYQEMPAQLRKQQESLARHLQTYGEHYPLDHFDK”, the “soluble on expression in E. coli” value is recorded as “soluble”.

Turning to “ERVVINISGLRFETQLKTLAQFPETLLGDPKKRMRYFDPLRNEYFFDRNRPSFDAILYYYQSGGRLRRPVNVPLDIFSEEIRFYELGEEAMEMFREDEG”, the “soluble on expression in E. coli” value is recorded as “soluble”.

“GPGSMNPLSTRRLGGTVTPGSALSGTCYVSHITRPARTMCWMKLAVFTQFPVVPSLAGTQVQGRQDLLASTAGAGTPEEASLFLQIELFDDECPQLCANFRRLCNGQSSTRQGQVYCFQGLTPSYCGTYFHKIIPSYCVQGGDITMRVKPGGTNSYSSAGRTWLPDEFKKRRHNEIGLVSMANNGPNSNGSQFFITTSAAHERAFNGRHCCIGHVVRGLDAFIALVAPFGNIEGHPSKYAVVVDCGEGEAPTLMSASSSPAAVFQASMAISETGTAGSSPAADSRSVSVEEAPAELDAHYCEQPPQLQLQHRQAADGTGVMAALSPSDAAAAAAPLSISPAQPLKSSLKEKTTAVSEAAKTHAKHVTYQL”: the “soluble on expression in E. coli” value was “not soluble”.

In the case of “MQKIDLGNNESLVCGVFPNQDGTFTAMTYTKSKTFKTETGARRWLEKHTVS”, the “soluble on expression in E. coli” value is “soluble”.

As for “MIAKISHGSSLYGVLAYNQLKVDERHADVLFTSRIIEPQGDNPYTIGHLSRSFGDYLTANRKTEKPVLHISLNPDPKDCLSEERFVSLAEEYMRRMGFGDQPYIVYRHNDIGREHLHIVSVRVDETGRAISDSYEHGRSMKVCRELERQFGLVLATPKQWKEGLPLSPVGYGDGNLKGQLAGVIRPIAREWRFRTLGEYRAVLSLYGITVDEVKGEYGGREYHGLTYSATDREGNKIGKPFKSSVFGKETGVAALERRMHNAAAWEKTHKEVAAATAGKVAAAMQTAGHDRAQFERELMRQGIGVVFRQNETGRIYGATFIDHAAKAVFNGSRLGKEFSAGVFNDLFAGQEGIHLPQPSAEVEHPTRQQEHTDISQWDGQDTGYRPDHKDGTTQNVAAAFNLFAPVPGGASGDQPVPLRKRKKKRKYGRQQLEHHHHHH”, the “soluble on expression in E. coli” value is given as “not soluble”.

The record behind these values is the DeepSol protein solubility set.
